Drawing on paper PMC6315623, this text covers percent of parent for eight variants.

B1: unnamed (parent)
chain 1: PHLSRQPEQPEQRALGPVSMPNLVPEVIDLTCHEAGFPPSDDEDEEG
chain 2: MPQPIEKVSVSTQTKKLSASSPRMLHRSTQTTNDGVCQSMCHDKYTKIFNDFKDRMKSDHKRETERVVREALEKLRSEMEEEKRQAVNKAVANMQGEMDRKCKQVKEKCKEEFVEEIKKLATQHKQLISQTKKKQWCYNCEEEAMYHCCWNTSYCSIKCQQEHWHAEHKRTCRRKR

The assay covers variants of B1. Put plainly: yeast two-hybrid (β-galactosidase activity). Particulars: with partner chain of the complex shown; n = 3; parent: 100; read off a plot.
As for chain 1 M20A, the percent of parent came out at 160%.

As to chain 1 V27A, the percent of parent was determined as 130%.

Regarding chain 1 S19A, the percent of parent was found to be 89%.

As to chain 1 E26A, the percent of parent came to 150%.

As for chain 1 I28A, the percent of parent worked out at 140%.

On to chain 1 N22A, for which the percent of parent was 100%.

In the case of chain 1 V24A, the percent of parent is 100%.

For chain 1 P25A, the percent of parent was determined as 180%.
